{"source": "patent US20130047297A1", "about": "“POLYNUCLEOTIDE MOLECULES FOR GENE REGULATION IN PLANTS” (priority 2010, published 2013)", "key": {"[1]": {"tested_on": "Nicotiana benthamiana phytoene desaturase", "assay": "Single PDS ssDNA oligonucleotide treatment, systemic silencing in organs and seed set (Example 12)", "format": "in vivo", "experimental": "Four-week old tobacco (Nicotiana benthamiana) plants were used in all treatments. Two fully expanded leaves (one cotyledon, one true leaf) were conditioned by dipping into freshly made surfactant solution (0.1% Silwet L-77 in double-distilled water) for a few seconds and allowed to dry for 15-30 minutes. Twenty microliters of a single-stranded DNA (ssDNA) 22-mer oligonucleotide with the sequence […] (SEQ ID NO:39), corresponding to the nucleotides at positions 1099-1120 of Nicotiana benthamiana phytoene desaturase (SEQ ID NO:2) was applied as a 25 micromolar solution in 0.01% Silwet L-77 in 5 millimolar sodium phosphate buffer, pH 6.8 to the top surface of each conditioned leaf for a total of 40 microliters (1 nanomole oligonucleotide) per plant. Control plants were treated with the Silwet solution without the DNA oligonucleotide.\nFlowers of both control and ssDNA-treated plants were allowed to set seed. Seeds were collected from mature fruits, weighed, and allowed to germinate. Seed weights were identical (about 11 mg per 100 seeds) and seed morphology appeared similar between the ssDNA-treated and the control plants.\nIn a separate assay using a similar procedure, tobacco plants were conditioned by dipping in 0.1% Silwet L-77 in double-distilled water, allowed to dry for 15-30 minutes, and treated with the PDS ssDNA 22-mer (SEQ ID NO:39) applied as a 25 micromolar solution in 0.01% Silwet L-77 in 5 millimolar sodium phosphate buffer, pH 6.8 to the top surface of each conditioned leaf for a total of 40 microliters (1 nanomole oligonucleotide) per plant. Other plants were not conditioned with a surfactant treatment, but were treated only with 1 nanomole of the PDS ssDNA 22-mer (SEQ ID NO:39) applied either by infiltration with a needleless syringe (shown in FIG. 18B) or by hand application of drops to the leaf surface (not shown in FIG. 18B), and either as a 25 micromolar solution in 0.01% Silwet L-77 in 5 millimolar sodium phosphate buffer, pH 6.8 or as a 25 micromolar solution in 5 millimolar sodium phosphate buffer, pH 6.8 (without surfactant). Negative control plants were treated with the Silwet buffer solution without the DNA oligonucleotide. Results are depicted in FIG. 18B."}, "[2]": {"tested_on": "endogenous EPSPS", "assay": "EPSPS mRNA, EPSPS protein and shikimate in detached leaves after anti-sense ssDNA petiole uptake (Example 9)", "parameters": "species or system Amaranthus palmeri", "conditions": "for increasing glyphosate efficacy, shikimate accumulation: 50 microgram/mL glyphosate; for suppressing levels of EPSPS mRNA and protein: 48 h incubation, #1 5 microM, #6 5 microM each (20 microM total), compared with other treatments", "experimental": "Petioles of detached leaves of glyphosate-resistant Palmer amaranth were placed in 200 mM sucrose solution with oligonucleotides according to the treatments listed in Table 2. Control leaves were permeated with the anti-sense control (SEQ ID NO:14), and additionally treated with or without 50 micrograms/mL glyphosate. EPSPS mRNA, EPSPS protein, and shikimate levels were measured after 48 h incubation. To assess the effects of anti-sense ssDNA oligonucleotides on EPSPS mRNA, total leaf RNA was isolated and quantitative real-time RT-PCR was performed to compare EPSPS mRNA levels. To assess the effects of anti-sense ssDNA oligonucleotides on EPSPS protein, total leaf soluble protein was isolated, separated by SDS-PAGE, and EPSPS protein levels measured by Western blot using antibodies against maize EPSPS_TIPA. Effects of anti-sense ssDNA oligonucleotides on shikimate accumulation as an indication of suppression of EPSPS were assessed in two experiments: in experiment 1, the oligonucleotide-treated leaves were incubated with 50 microgram/mL glyphosate for an additional 48 h either by petiole uptake (control leaves were permeated with the anti-sense control (SEQ ID NO:14), and additionally treated with or without 50 micrograms/mL glyphosate); in experiment 2, leaf disc assays were performed on the oligonucleotide-treated leaves, and shikimate levels measured by HPLC (controls in this case were leaves that had not been treated with oligonucleotides but incubated with 50 microgram/mL glyphosate)."}, "[3]": {"tested_on": "mRNA encoding phytoene desaturase in tobacco (Nicotiana benthamiana)", "assay": "Topical PDS dsRNA on tobacco, bleaching (Example 4)", "format": "in vivo", "conditions": "for plant outcome: 15 days after treatment with dsRNA; for phytoene desaturase silencing, leaf bleaching: day 9 after dsRNA treatment, about 0.6 micromoles of dsRNA per plant; for Northern blot analysis, siRNAs corresponding to the dsRNAs: in vivo", "description": "This example illustrates the utility of the polynucleotide molecules of the invention as herbicidal agents. Two dsRNA polynucleotide molecules were designed to target overlapping segments of mRNA encoding phytoene desaturase in tobacco (Nicotiana benthamiana). With reference to SEQ ID NO:2 and FIG. 5, a dsRNA targeting a 192 nt length (shown in bold in FIG. 5) and a 685 nt length (shown in underline in FIG. 5) of the mRNA were made using an Ambion® MEGAscript® kit. Separate dsRNA solutions were prepared. Tobacco plant leaves were pretreated with surfactant solution prepared as in Example 1 and then treated with either one of the dsRNA solutions applying about […] of dsRNA per plant."}, "[4]": {"tested_on": "Palmer amaranth phytoene desaturase (PDS)", "assay": "Sequence specificity of PDS dsRNA on Palmer amaranth, bleaching (Example 11)", "format": "in vivo", "conditions": "for bleaching of leaves: 0.6 micromolar polynucleotide, 40 microliters per plant, observed 3 days post treatment; for bleaching of leaves (FIG. 17): separate assay", "experimental": "Palmer amaranth plants having 16 copies of EPSPS and 5-8 inches high were treated with 0.1% Silwet L-77 solution freshly made with ddH2O. Four fully expanded leaves per plant were dipped into the Silwet L-77 solution for a few seconds, and allowed to dry for 30 minutes to 1 hour before application of the polynucleotide composition. Individual polynucleotide solutions were made for each of the 678 by Palmer PDS dsRNA, 198 by Palmer PDS dsRNA, the 685 by Nicotiana benthamiana PDS dsRNA, and the 192 by Nicotiana benthamiana PDS dsRNA (0.6 micromolar polynucleotide in 0.01% Silwet L-77, 5 mM sodium phosphate buffer, pH 6.8). 10 microliters of polynucleotide solution (or buffer as a control) was applied to the top surface of each of the four pre-treated leaves per plant to provide a total of 40 microliters for each plant. Plants were kept in a growth chamber, and leaf bleaching was observed 3 days post treatment."}}, "data": [{"molecule": "PDS ssDNA 22-mer: SEQ ID NO:39, GGCAGTACAATTAAAGGAGATG, positions 1099-1120 of SEQ ID NO:2 (DNA, backbone not given here; listed as Nicotiana benthamiana)", "values": [{"measurement": "amount of seed produced per fruit", "setting": "[1]; compared to control plants", "value": "reduced amount of seed produced per fruit"}, {"measurement": "bleaching of apical leaves, stems, and flowers", "setting": "[1]; leaves conditioned with 0.1% Silwet L-77, 1 nanomole per plant", "value": "all displayed bleaching"}, {"measurement": "germination rate", "setting": "[1]; seeds from treated plants, control 95 out of 100", "value": "4 out of 100"}, {"measurement": "seed weight", "setting": "[1]; seeds from treated plants, identical to control", "value": "about 11 mg per 100 seeds"}, {"measurement": "bleaching of apical leaves, stems, and flowers", "setting": "[1]; without conditioning by Silwet L-77, 1 nanomole by infiltration or hand application of drops", "value": "displayed bleaching of apical leaves, stems, and flowers"}]}, {"molecule": "Anti-sense_PO1: SEQ ID NO:8, ssDNA anti-sense to Amaranthus palmeri EPSPS (antisense ACCCTCCACGACTGCCCTTT; listed as DNA, chemistry not fully specified; listed as Amaranthus palmeri)", "values": [{"measurement": "increasing glyphosate efficacy, shikimate accumulation", "setting": "[2]", "value": "increased accumulation of shikimate"}, {"measurement": "suppressing levels of EPSPS mRNA and protein", "setting": "[2]", "value": "more efficacious"}]}, {"molecule": "dsRNA targeting a 192 nt length: dsRNA to Nicotiana benthamiana PDS, positions 914-1105 of SEQ ID NO:38 (nucleic acid, listed as Nicotiana benthamiana, dsRNA of this region) DNA: ACAGATTTCTTCAGGAGAAACATGGTTCAAAAATGGCCTTTTTAGATGGTAACCCTCCTGAGAGACTTTGCATGCCGATTGTGGAACATATTGAGTCAAAAGGTGGCCAAGTCAGACTAAACTCACGAATAAAAAAGATCGAGCTGAATGAGGATGGAAGTGTCAAATGTTTTATACTGAATAATGGCAGTA", "values": [{"measurement": "plant outcome", "setting": "[3]", "value": "one half of the treated plants appeared to be dead and the other half of the plants had most of the above ground tissues bleached"}, {"measurement": "phytoene desaturase silencing, leaf bleaching", "setting": "[3]", "value": "visible leaf bleaching on apical leaves"}, {"measurement": "Northern blot analysis, siRNAs corresponding to the dsRNAs", "setting": "[3]", "value": "presence of siRNAs"}, {"measurement": "bleaching of leaves", "setting": "[4]", "value": "did not show bleaching of leaves"}]}, {"molecule": "dsRNA targeting a 685 nt length: dsRNA to Nicotiana benthamiana PDS, positions 421-1105 of SEQ ID NO:38 (nucleic acid, listed as Nicotiana benthamiana, dsRNA of this region) DNA: GCAAGAGATGTCCTAGGTGGGAAGGTAGCTGCATGGAAAGATGATGATGGAGATTGGTACGAGACTGGGTTGCACATATTCTTTGGGGCTTACCCAAATATGCAGAACCTGTTTGGAGAACTAGGGATTGATGATCGGTTGCAGTGGAAGGAACATTCAATGATATTTGCGATGCCTAACAAGCCAGGGGAGTTCAGCCGCTTTGATTTTCCTGAAGCTCTTCCTGCGCCATTAAATGGAATTTTGGCCATACTAAAGAACAACGAAATGCTTACGTGGCCCGAGAAAGTCAAATTTGCTATTGGACTCTTGCCAGCAATGCTTGGAGGGCAATCTTATGTTGAAGCTCAAGACGGTTTAAGTGTTAAGGACTGGATGAGAAAGCAAGGTGTGCCTGATAGGGTGACAGATGAGGTGTTCATTGCCATGTCAAAGGCACTTAACTTCATAAACCCTGACGAGCTTTCGATGCAGTGCATTTTGATTGCTTTGAACAGATTTCTTCAGGAGAAACATGGTTCAAAAATGGCCTTTTTAGATGGTAACCCTCCTGAGAGACTTTGCATGCCGATTGTGGAACATATTGAGTCAAAAGGTGGCCAAGTCAGACTAAACTCACGAATAAAAAAGATCGAGCTGAATGAGGATGGAAGTGTCAAATGTTTTATACTGAATAATGGCAGTA", "values": [{"measurement": "plant outcome", "setting": "[3]", "value": "one half of the treated plants appeared to be dead and the other half of the plants had most of the above ground tissues bleached"}, {"measurement": "phytoene desaturase silencing, leaf bleaching", "setting": "[3]", "value": "visible leaf bleaching on apical leaves"}, {"measurement": "Northern blot analysis, siRNAs corresponding to the dsRNAs", "setting": "[3]", "value": "presence of siRNAs"}, {"measurement": "bleaching of leaves", "setting": "[4]", "value": "did not show bleaching of leaves"}]}, {"molecule": "#6: Anti-sense_PO1, PO2, PO3, PO4 (SEQ ID NOs: 8, 9, 10, 11) (nucleic acid, listed as Amaranthus palmeri, DNA, backbone not given here) antisense 1: ACCCTCCACGACTGCCCTTT antisense 2: GTTTCCTTCACTCTCCAGC antisense 3: GTAGCTTGAGCCATTATTGT antisense 4: GTTGATGGTAGTAGCTTGAG", "values": [{"measurement": "increasing glyphosate efficacy, shikimate accumulation", "setting": "[2]", "value": "increased accumulation of shikimate"}, {"measurement": "suppressing levels of EPSPS mRNA and protein", "setting": "[2]", "value": "more efficacious"}]}, {"molecule": "678 by Palmer PDS dsRNA: dsRNA to positions 317-994 of SEQ ID NO:37 (nucleic acid, listed as Amaranthus palmeri, complementary strand) sense: TAGGAGGAAAGGTTGCAGCGTGGAAGGATGAGGATGGTGACTGGTATGAGACTGGGCTACATATATTCTTTGGGGCATATCCAAATGTCCAAAATCTATTTGGAGAACTTGGTATAAATGACCGACTGCAATGGAAGGAGCACTCTATGATTTTTGCAATGCCCAGCAAGCCCGGTGAATTCAGTCGCTTTGATTTTCCCGAAATCCTGCCTGCACCATTAAATGGCATATGGGCAATCCTAAGAAATAATGAAATGCTAACCTGGCCAGAAAAAATCAAGTTTGCCATTGGCTTGTTGCCTGCTATGGCAGGCGGACAGTCATATGTTGAAGCACAAGATGGTTTGAGTGTCCAAGAGTGGATGAGAAAACAAGGAGTACCCGATCGTGTAACTGATGATGTGTTTATTGCCATGTCAAAGGCACTGAACTTCATAAATCCCGATGAACTTTCAATGCAGTGCATCTTGATTGCTCTGAACCGATTCCTGCAGGAGAAACATGGTTCTAAGATGGCCTTCCTAGACGGAAACCCTCCAGAGAGGCTGTGCATGCCTATTGTTAAACACATCGAGTCACTAGGTGGTGAAGTTAAACTTAACTCTCGTATACAAAAGATTCAGTTGGACCAGAGTGGAAGCGTGAAGAGTTTTTTGCTAAATAACGGGAGGGAAATAC", "values": [{"measurement": "bleaching of leaves", "setting": "[4]", "value": "showed bleaching of leaves"}, {"measurement": "bleaching of leaves (FIG. 17)", "setting": "[4]", "value": "showed bleaching of leaves"}]}, {"molecule": "198 by Palmer PDS dsRNA: dsRNA to positions 797-994 of SEQ ID NO:37 (nucleic acid, listed as Amaranthus palmeri, complementary strand) sense: ACCGATTCCTGCAGGAGAAACATGGTTCTAAGATGGCCTTCCTAGACGGAAACCCTCCAGAGAGGCTGTGCATGCCTATTGTTAAACACATCGAGTCACTAGGTGGTGAAGTTAAACTTAACTCTCGTATACAAAAGATTCAGTTGGACCAGAGTGGAAGCGTGAAGAGTTTTTTGCTAAATAACGGGAGGGAAATAC", "values": [{"measurement": "bleaching of leaves", "setting": "[4]", "value": "showed bleaching of leaves"}, {"measurement": "bleaching of leaves (FIG. 17)", "setting": "[4]", "value": "showed bleaching of leaves"}]}]}
